Data set [1] deals with HeLa Kyoto. Put plainly: solubility in G1/S (NP-40 vs SDS abundance) (log2 ratio); higher = more soluble. The following applies: cell cycle stage: G1/S.
Data set [2] has as its system HeLa Kyoto. Kind of data set: solubility change mitosis vs G1/S (difference of NP-40 vs SDS log2 ratios) (log2 ratio difference); higher = more soluble in mitosis.
The subject of data set [3] is HeLa Kyoto. Put plainly: thermal stability score vs G1/S (z-score of summed log2 fold changes over temperatures); higher = more thermally stable than in G1/S.
Data set [4] concerns HeLa Kyoto. Kind of data set: melting temperature (median over replicates), in situ; higher = more thermally stable.
Where [5] appears, read: cell cycle stage: early G1 (4.5 h after nocodazole release).

Eight sequences from the supplement of paper PMC5998384 can be followed below.
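Wherever melting temperature (median over replicates), in situ is given: HeLa Kyoto cells synchronized by double thymidine or nocodazole block, proteins quantified by TMT10plex mass spectrometry, three independent biological replicates.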
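Wherever solubility change mitosis vs G1/S (difference of NP-40 vs SDS log2 ratios) is given: synchronized HeLa Kyoto cells (double thymidine block for G1/S, nocodazole release for mitosis), protein amounts in NP-40 versus SDS lysates quantified by mass spectrometry, three biological replicates.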
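Wherever solubility in G1/S (NP-40 vs SDS abundance) is given: HeLa Kyoto cells arrested at G1/S by double thymidine block, proteins quantified by TMT10plex mass spectrometry in mild NP-40 versus SDS extracts, three biological replicates.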
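Wherever thermal stability score vs G1/S (z-score of summed log2 fold changes over temperatures) is given: synchronized HeLa Kyoto cells, proteins quantified by TMT10plex mass spectrometry, three biological replicates, mitosis taken 0.5 h after nocodazole release, G1/S directly after double thymidine block.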

With “MSERKVLNKYYPPDFDPSKIPKLKLPKDRQYVVRLMAPFNMRCKTCGEYIYKGKKFNARKETVQNEVYLGLPIFRFYIKCTRCLAEITFKTDPENTDYTMEHGATRNFQAEKLLEEEEKRVQKEREDEELNNPMKVLENRTKDSKLEMEVLENLQELKDLNQRQAHVDFEAMLRQHRLSEEERRRQQQEEDEQETAALLEEARKRRLLEDSDSEDEAAPSPLQPALRPNPTAILDEAPKPKRKVEVWEQSVGSLGSRPPLSRLVVVKKAKADPDCSNGQPQAAPTPGAPQNRKEANPTPLTPGASSLSQLGAYLDSDDSNGSN [CCDC94]”, the “solubility in G1/S (log2)” value in the data set with HeLa Kyoto [1] came out at 0.299. Moreover, the “solubility change mitosis (log2)” value with HeLa Kyoto [2] is -0.0138. For the same sequence, the thermal stability score in the data set on HeLa Kyoto [3] (setting [5]) stood at 0.296; in the data set with HeLa Kyoto [3] (cell cycle stage: mitosis) it was 0.409. Besides, the melting temperature with HeLa Kyoto [4] (cell cycle stage: G1/S) came out at 51.6 °C; with HeLa Kyoto [4] (cell cycle stage: mitosis), 52.3 °C.
For “MSFFNFRKIFKLGSEKKKKQYEHVKRDLNPEDFWEIIGELGDGAFGKVYKAQNKETSVLAAAKVIDTKSEEELEDYMVEIDILASCDHPNIVKLLDAFYYENNLWILIEFCAGGAVDAVMLELERPLTESQIQVVCKQTLDALNYLHDNKIIHRDLKAGNILFTLDGDIKLADFGVSAKNTRTIQRRDSFIGTPYWMAPEVVMCETSKDRPYDYKADVWSLGITLIEMAEIEPPHHELNPMRVLLKIAKSEPPTLAQPSRWSSNFKDFLKKCLEKNVDARWTTSQLLQHPFVTVDSNKPIRELIAEAKAEVTEEVEDGKEEDEEEETENSLPIPASKRASSDLSIASSEEDKLSQNACILESVSEKTERSNSEDKLNSKILNEKPTTDEPEKAVEDINEHITDAQLEAMTELHDRTAVIKENEREKRPKLENLPDTEDQETVDINSVSEGKENNIMITLETNIEHNLKSEEEKDQEKQQMFENKLIKSEEIKDTILQTVDLVSQETGEKEANIQAVDSEVGLTKEDTQEKLGEDDKTQKDVISNTSDVIGTCEAADVAQKVDEDSAEDTQSNDGKEVVEVGQKLINKPMVGPEAGGTKEVPIKEIVEMNEIEEGKNKEQAINSSENIMDINEEPGTTEGEEITESSSTEEMEVRSVVADTDQKALGSEVQDASKVTTQIDKEKKEIPVSIKKEPEVTVVSQPTEPQPVLIPSININSDSGENKEEIGSLSKTETILPPESENPKENDNDSGTGSTADTSSIDLNLSISSFLSKTKDSGSISLQETRRQKKTLKKTRKFIVDGVEVSVTTSKIVTDSDSKTEELRFLRRQELRELRFLQKEEQRAQQQLNSKLQQQREQIFRRFEQEMMSKKRQYDQEIENLEKQQKQTIERLEQEHTNRLRDEAKRIKGEQEKELSKFQNMLKNRKKEVINEVEKAPKELRKELMKRRKEELAQSQHAQEQEFVQKQQQELDGSLKKIIQQQKAELANIERECLNNKQQLMRAREAAIWELEERHLQEKHQLLKQQLKDQYFMQRHQLLKRHEKETEQMQRYNQRLIEELKNRQTQERARLPKIQRSEAKTRMAMFKKSLRINSTATPDQDRDKIKQFAAQEEKRQKNERMAQHQKHENQMRDLQLQCEANVRELHQLQNEKCHLLVEHETQKLKELDEEHSQELKEWREKLRPRKKTLEEEFARKLQEQEVFFKMTGESECLNPSTQSRISKFYPIPSLHSTGS”, in the data set on HeLa Kyoto [1], the “solubility in G1/S (log2)” value was 0.0156. In addition, the “solubility change mitosis (log2)” value in the data set with HeLa Kyoto [2] is -0.139. Besides, the thermal stability score is -0.208 with HeLa Kyoto [3] (setting [5]) and 0.991 in the data set with HeLa Kyoto [3] (cell cycle stage: mitosis). The melting temperature came out at 50.2 °C in the data set on HeLa Kyoto [4] (cell cycle stage: G1/S) and 49.9 °C with HeLa Kyoto [4] (cell cycle stage: mitosis).
With “MSFICGLQSAARNHVFFRFNSLSNWRKCNTLASTSRGCHQVQVNHIVNKYQGLGVNQCDRWSFLPGNFHFYSTFNNKRTGGLSSTKSKEIWRITSKCTVWNDAFSRQLLIKEVTAVPSLSVLHPLSPASIRAIRNFHTSPRFQAAPVPLLLMILKPVQKLFAIIVGRGIRKWWQALPPNKKEVVKENIRKNKWKLFLGLSSFGLLFVVFYFTHLEVSPITGRSKLLLLGKEQFRLLSELEYEAWMEEFKNDMLTEKDARYLAVKEVLCHLIECNKDVPGISQINWVIHVVDSPIINAFVLPNGQMFVFTGFLNSVTDIHQLSFLLGHEIAHAVLGHAAEKAGMVHLLDFLGMIFLTMIWAICPRDSLALLCQWIQSKLQEYMFNRPYSRKLEAEADKIGLLLAAKACADIRASSVFWQQMEFVDSLHGQPKMPEWLSTHPSHGNRVEYLDRLIPQALKIREMCNCPPLSNPDPRLLFKLSTKHFLEESEKEDLNITKKQKMDTLPIQKQEQIPLTYIVEKRTGS [OMA1]”, in the data set with HeLa Kyoto [1], the “solubility in G1/S (log2)” value is -0.436. Further, the “solubility change mitosis (log2)” value in the data set with HeLa Kyoto [2] was -0.0922. The values for the thermal stability score with HeLa Kyoto [3] (setting [5]) and in the data set on HeLa Kyoto [3] (cell cycle stage: mitosis) were -1.79 and -1.54, respectively. Besides, the melting temperature was found to be 54.1 °C in the data set on HeLa Kyoto [4] (cell cycle stage: G1/S) and 54.7 °C in the data set with HeLa Kyoto [4] (cell cycle stage: mitosis).
With “MSFLLPKLTSKKEVDQAIKSTAEKVLVLRFGRDEDPVCLQLDDILSKTSSDLSKMAAIYLVDVDQTAVYTQYFDISYIPSTVFFFNGQHMKVDYGSPDHTKFVGSFKTKQDFIDLIEVIYRGAMRGKLIVQSPIDPKNIPKYDLLYQDI [TXNL4B]”, the “solubility in G1/S (log2)” value in the data set on HeLa Kyoto [1] stood at 0.0975. For the same sequence, the “solubility change mitosis (log2)” value in the data set on HeLa Kyoto [2] was found to be 0.00266. Besides, the thermal stability score with HeLa Kyoto [3] (setting [5]) amounted to 0.0365; in the data set with HeLa Kyoto [3] (cell cycle stage: mitosis), 1.15. For the same sequence, the melting temperature in the data set on HeLa Kyoto [4] (cell cycle stage: G1/S) amounted to 51 °C; with HeLa Kyoto [4] (cell cycle stage: mitosis), 51.8 °C.
“MSFLQDPSFFTMGMWSIGAGALGAAALALLLANTDVFLSKPQKAALEYLEDIDLKTLEKEPRTFKAKELWEKNGAVIMAVRRPGCFLCREEAADLSSLKSMLDQLGVPLYAVVKEHIRTEVKDFQPYFKGEIFLDEKKKFYGPQRRKMMFMGFIRLGVWYNFFRAWNGGFSGNLEGEGFILGGVFVVGSGKQGILLEHREKEFGDKVNLLSVLEAAKMIKPQTLASEKK [FAM213A]”: in the data set on HeLa Kyoto [1], the “solubility in G1/S (log2)” value is -0.0704. In the data set with HeLa Kyoto [2], the “solubility change mitosis (log2)” value is -0.0729. For the same sequence, the figures for the thermal stability score with HeLa Kyoto [3] (setting [5]) and in the data set on HeLa Kyoto [3] (cell cycle stage: mitosis) were -0.538 and -0.108, respectively. In addition, the results for the melting temperature in the data set with HeLa Kyoto [4] (cell cycle stage: G1/S) and in the data set with HeLa Kyoto [4] (cell cycle stage: mitosis) were 56.6 °C and 55.5 °C, respectively.
For the sequence “MSFSRALLWARLPAGRQAGHRAAICSALRPHFGPFPGVLGQVSVLATASSSASGGSKIPNTSLFVPLTVKPQGPSADGDVGAELTRPLDKNEVKKVLDKFYKRKEIQKLGADYGLDARLFHQAFISFRNYIMQSHSLDVDIHIVLNDICFGAAHADDLFPFFLRHAKQIFPVLDCKDDLRKISDLRIPPNWYPDARAMQRKIIFHSGPTNSGKTYHAIQKYFSAKSGVYCGPLKLLAHEIFEKSNAAGVPCDLVTGEERVTVQPNGKQASHVSCTVEMCSVTTPYEVAVIDEIQMIRDPARGWAWTRALLGLCAEEVHLCGEPAAIDLVMELMYTTGEEVEVRDYKRLTPISVLDHALESLDNLRPGDCIVCFSKNDIYSVSRQIEIRGLESAVIYGSLPPGTKLAQAKKFNDPNDPCKILVATDAIGMGLNLSIRRIIFYSLIKPSINEKGERELEPITTSQALQIAGRAGRFSSRFKEGEVTTMNHEDLSLLKEILKRPVDPIRAAGLHPTAEQIEMFAYHLPDATLSNLIDIFVDFSQVDGQYFVCNMDDFKFSAELIQHIPLSLRVRYVFCTAPINKKQPFVCSSLLQFARQYSRNEPLTFAWLRRYIKWPLLPPKNIKDLMDLEAVHDVLDLYLWLSYRFMDMFPDASLIRDLQKELDGIIQDGVHNITKLIKMSETHKLLNLEGFPSGSQSRLSGTLKSQARRTRGTKALGSKATEPPSPDAGELSLASRLVQQGLLTPDMLKQLEKEWMTQQTEHNKEKTESGTHPKGTRRKKKEPDSD [SUPV3L1]”, in the data set on HeLa Kyoto [1], the “solubility in G1/S (log2)” value is -0.0284. Besides, in the data set on HeLa Kyoto [2], the “solubility change mitosis (log2)” value was -0.0848. The thermal stability score came to 0.374 in the data set with HeLa Kyoto [3] (setting [5]) and 0.138 with HeLa Kyoto [3] (cell cycle stage: mitosis). Also, the melting temperature in the data set with HeLa Kyoto [4] (cell cycle stage: G1/S) was 51.4 °C; in the data set with HeLa Kyoto [4] (cell cycle stage: mitosis), 51.5 °C.
Consider “MSGCDAREGDCCSRRCGAQDKEHPRYLIPELCKQFYHLGWVTGTGGGISLKHGDEIYIAPSGVQKERIQPEDMFVCDINEKDISGPSPSKKLKKSQCTPLFMNAYTMRGAGAVIHTHSKAAVMATLLFPGREFKITHQEMIKGIKKCTSGGYYRYDDMLVVPIIENTPEEKDLKDRMAHAMNEYPDSCAVLVRRHGVYVWGETWEKAKTMCECYDYLFDIAVSMKKVGLDPSQLPVGENGIV [APIP]”, for which, in the data set on HeLa Kyoto [1], the “solubility in G1/S (log2)” value came out at 0.253. In addition, the “solubility change mitosis (log2)” value with HeLa Kyoto [2] is -0.078. In addition, the thermal stability score was -1.32 with HeLa Kyoto [3] (setting [5]) and -2.26 in the data set on HeLa Kyoto [3] (cell cycle stage: mitosis). The figures for the melting temperature in the data set with HeLa Kyoto [4] (cell cycle stage: G1/S) and in the data set with HeLa Kyoto [4] (cell cycle stage: mitosis) were 59.3 °C and 57.6 °C, respectively.
With “MSGCRVFIGRLNPAAREKDVERFFKGYGRIRDIDLKRGFGFVEFEDPRDADDAVYELDGKELCSERVTIEHARARSRGGRGRGRYSDRFSSRRPRNDRRNAPPVRTENRLIVENLSSRVSWQDLKDFMRQAGEVTFADAHRPKLNEGVVEFASYGDLKNAIEKLSGKEINGRKIKLIEGSKRHSRSRSRSRSRTRSSSRSRSRSRSRSRKSYSRSRSRSRSRSRSKSRSVSRSPVPEKSQKRGSSSRSKSPASVDRQRSRSRSRSRSVDSGN [SRSF5]”, in the data set with HeLa Kyoto [1], the “solubility in G1/S (log2)” value is -0.33. Also, in the data set on HeLa Kyoto [2], the “solubility change mitosis (log2)” value worked out at 0.302. The thermal stability score is 1.65 in the data set with HeLa Kyoto [3] (setting [5]) and -4.18 in the data set on HeLa Kyoto [3] (cell cycle stage: mitosis). The melting temperature in the data set on HeLa Kyoto [4] (cell cycle stage: G1/S) is 51.3 °C; in the data set with HeLa Kyoto [4] (cell cycle stage: mitosis), 51.5 °C.
